Measured values published in article PMC3137068.
Residue numbers refer to the chain shown, from its start. Names and notes keep the numbering of the source. Like-named read-outs stand apart in the source and are kept apart here. Each block holds one molecule with its values, some of them ahead of it.

Legend:
[1] = biological target: oxidized nDsbD (N-terminal periplasmic globular domain of DsbD, wild type) (E. coli) (UniProt P36655); assay: SPR
Cys461 = Cys461 (UniProt position 480, LYADWCVACKE); assay: NMR; details: reduced cDsbD (Cys461 and Cys464 as free thiols), isolated from nDsbD; cited from earlier work
Asp455 = Asp455 (UniProt position 474, KPVMLDLYADW); details: isolated domain, cited from earlier work
[2] = biological target: oxidized D455N/E468Q-cDsbD (E. coli); assay: NMR titration
[3] = biological target: oxidized V462A-cDsbD (E. coli); assay: NMR titration
[4] = biological target: oxidized cDsbD (C-terminal periplasmic globular domain of DsbD, wild type) (E. coli); assay: NMR titration
oxidized cDsbD (C-terminal periplasmic globular domain of DsbD, wild type) (E. coli), sequence (P36655 20-565): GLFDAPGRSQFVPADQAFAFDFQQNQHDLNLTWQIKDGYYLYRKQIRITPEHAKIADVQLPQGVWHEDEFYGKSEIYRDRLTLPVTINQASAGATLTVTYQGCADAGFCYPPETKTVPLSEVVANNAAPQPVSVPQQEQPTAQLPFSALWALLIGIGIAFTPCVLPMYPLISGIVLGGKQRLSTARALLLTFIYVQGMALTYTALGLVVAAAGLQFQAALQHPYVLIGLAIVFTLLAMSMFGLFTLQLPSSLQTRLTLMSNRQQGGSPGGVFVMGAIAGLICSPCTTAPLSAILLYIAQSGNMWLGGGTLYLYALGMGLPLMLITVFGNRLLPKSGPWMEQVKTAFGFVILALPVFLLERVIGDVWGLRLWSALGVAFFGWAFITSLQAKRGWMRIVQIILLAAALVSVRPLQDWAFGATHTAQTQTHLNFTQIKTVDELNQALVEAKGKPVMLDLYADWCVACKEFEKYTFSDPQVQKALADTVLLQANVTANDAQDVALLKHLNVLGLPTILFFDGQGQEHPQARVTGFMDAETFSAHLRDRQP

Kd [1]: 86 µM
Molecule: C461A-cDsbD (domain or fragment)

Kd [4]: 2.4 to 3.5 mM
B2: C109A-nDsbD (domain or fragment)
chain: LFDAPGRSQFVPADQAFAFDFQQNQHDLNLTWQIKDGYYLYRKQIRITPEHAKIADVQLPQGVWHEDEFYGKSEIYRDRLTLPVTINQASAGATLTVTYQGCADAGFAYPPETKTVPLSEVVANNAAPQPV

The remaining lines, values behind:

Molecule: Thiol:disulfide interchange protein DsbD, C-terminal periplasmic thioredoxin-like domain (cDsbD) (Escherichia coli)
pKa (Cys461): 10.5
pKa (Asp455; oxidized cDsbD (Cys461-Cys464 disulfide)): 6.6
pKa (Asp455; reduced cDsbD (Cys461 and Cys464 as free thiols)): 5.9

B1: oxidized nDsbD (N-terminal periplasmic globular domain of DsbD, wild type) (domain or fragment)
chain: B2 chain with A108C
modifications: Cys103-Cys109 disulfide bond (oxidized state)
Kd [2]: 2 mM
fold weaker than with wild-type cDsbDox [3]: 5 to 10 fold
